# In paper PMC11240955, “Stability Engineering of Recombinant Secretory IgA” (International Journal of Molecular Sciences, 2024):
# B1: COVA2-15 monomeric IgA2m(1)_D133C (antibody, V domains shown)
# VH: QVQLLESGGGLVQPGGSLRLSCAASGFTFSSYAMSWVRQAPGKGLEWASAISGSGGSTYYADSVEGRFTISRDNSKNTLYLQMNSLRAEDTAVYYCAKDTGYCGDDCYIKLIRGGPDYWGQGTLVTVSS
# VL: DIVMTQSPLSLPVTLGQPASISCRSSQSLVYSDGNTFLNWFQQRPGQSPRRLIYQVSNRDSGVPDRFSGSGSGTDFTLKISRVEAEDVGVYYCMQGTHWPRTFGQGTKLEIK
# notes: no single major 160 kDa peak in SEC; also called COVA2-15 mIgA2m(1)_D133C; mIgA2m(1)_D133C; copies: 2 + 2
# Target: T1, receptor-binding domain (RBD) of the SARS-CoV-2 spike, R319-F541, with a C-terminal 6xHis-tag (SARS-CoV-2, UniProt P0DTC2)
# T1 construct: also called RBD-His; not shown: His6, C-terminal, kept
# Test: ELISA
# Conditions: both partners purified
binder,measurement,value
B1,binding result,binds
